Experimental data published in paper PMC3025356, “Mechanism of the Ca^2+-Dependent Interaction between S100A4 and Tail Fragments of Nonmuscle Myosin Heavy Chain IIA” (Journal of Molecular Biology, 2011).
Entries after “also recorded” stand apart in the source; their conditions may differ.

What was measured:
[1] = target: T1, S100A4 (Homo sapiens, UniProt P26447); test: Quin-2 fluorescence, Ca^2+ dissociation from S100A4 in the presence of target peptides; format: binding
T1 construct: We used full-length S100A4 for this analysis; made in house; host or cells: Escherichia coli BL21(DE3)
T1 sequence (P26447 whole entry): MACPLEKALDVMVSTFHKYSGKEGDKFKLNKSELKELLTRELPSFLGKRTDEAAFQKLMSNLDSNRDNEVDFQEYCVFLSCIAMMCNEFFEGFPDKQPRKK
Protocol: Ca^2+ dissociation measurements for wild-type S100A4, using Quin-2 as described above, were repeated as a control for the effect of target peptides on this process. On mixing 10 μM S100A4 in the presence of Ca^2+ with 100 μM Quin-2, the observed profile was fitted to a single exponential with kobs = 17 s^− 1 (Fig. 5a; cf. k− 1 in Scheme 1).
Fig. 5 Dissociation of Ca^2+ from S100A4 in the absence and in the presence of target peptides monitored using Quin-2 fluorescence. (a) Mixed with 100 μM Quin-2 was 10 μM S100A4 + 50 μM Ca^2+ (stopped-flow reaction chamber concentrations). A superposed fit to a single exponential yields kobs = 17 s^− 1. […] (d) As in (a), but with 2.5 μM M200 premixed with 5 μM S100A4. A biphasic exponential fit yielded rate constants of 13 s^− 1 (A = 26%) and 0.30 s^− 1 (A = 74%). […] Experiments were carried out in either 20 mM NaCl, 20 mM Tris, 1 mM DTT, and 100 μM Ca^2+ at pH 7.5 and 20 °C (a and b; cf. Malashkevich et al.[17]), or 100 mM NaCl, 10 mM Hepes, and 100 μM Ca^2+ at pH 7.5 and 20 °C (c and d). […] Rate constants were unaffected by the inclusion of 1 mM Mg^2+.
Stopped-flow measurements were carried out using an SX18-MV apparatus (Applied Photophysics Ltd., Leatherhead, UK) with a dead time of 1.5 ms.[40] Records were generally captured on a logarithmic time base. Absorption (turbidity) measurements were usually recorded using a 10-mm pathlength, while fluorescence was recorded with a 2-mm pathlength for excitation and emission. The stated concentrations of components refer to the reaction chamber after mixing, unless otherwise indicated. Tyrosine fluorescence was excited at 280 nm, and the emission was collected through a UG11 bandpass filter plus a 305-nm longpass filter.[18] Fluorescein fluorescence was excited at 480 nm, and the emission was detected through a 515-nm longpass filter. Quin-2 fluorescence was measured by excitation at 336 nm, and emission was collected with a 455-nm longpass filter. For simultaneous recording of light scatter, a second channel was monitored through a UG11 filter. Rate constants were obtained by fitting to single-exponential or double-exponential functions using Kaleidagraph (Synergy Software) or Applied Photophysics Pro-Data software. Modeling of kinetic schemes was performed using Berkeley Madonna software.

[2] = CD / helical stability of M111; format: physicochemical; settings: 0.05 mM protein
Protocol: CD spectra were measured on a JASCO J-715 spectropolarimeter equipped with a JASCO PTC-348WI temperature-controlled unit at 0.05 mM protein solutions using a 1-mm pathlength microcuvette.

[3] = increasing concentrations of M111

B1: M111: His-tagged human NM-MHC IIA residues 1850-1960, V1913I substitution (protein, UniProt P35579 1850-1960, looked up, variant V1913I)
chain: QVDDERRNAEQYKDQADKASTRLKQLKRQLEEAEEEAQRANASRRKLQRELEDATETADAMNREISSLKNKLRRGDLPFVVPRRMARKGAGDGSDEEVDGKADGAEAKPAE
modifications: His tag
notes: His-tagged human NM-MHC IIA residues 1850-1960, V1913I substitution
**Q.** What does the source list for B1?
**A.** fast-phase amplitude ([1]; 5 μM M111, 10 μM S100A4): 6%; slow-phase amplitude ([1]; 5 μM M111, 10 μM S100A4): 94%; slow-phase rate constant ([1]; 5 μM M111, 10 μM S100A4, 50 μM Ca^2+, 100 μM Quin-2): 0.36 s⁻¹; fast-phase rate constant ([1]; 5 μM M111, 10 μM S100A4, 50 μM Ca^2+, 100 μM Quin-2, residual unbound S100A4): 21 s⁻¹; slower release of Ca^2+ ([1]; in presence of coiled-coil fragments): 0.3–0.5 s^− 1; fast-phase rate constant [1, 3]: 20 s^− 1; slow-phase rate constant [1, 3]: 0.4 s^− 1; Ca^2+ dissociation rate constant from complex (k− 3), comparison ([1]; peptide–S100A4–Ca^2+ complex): 0.3 s^− 1; helical structure stability [2]: high helical content detected for the fragment by CD below 20 °C; also recorded: only marginally stable at 20 °C
